Reference: doi:10.1101/2022.10.17.512494

Molecular target: recombinant VE-cadherin-Fc (UniProt P55284)
Assay: atomic force microscopy

binding activity (binding probability): 61%
Substance: recombinant VE-cadherin-Fc (from UniProt P55284 46-599) (Fc fusion)
